# Experimental data reported in US20230173037A1, “Manipulating Glycogen in Alzheimer’s Disease, Epilepsy, Traumatic Brain Injury, and ALS as a Treatment” (University of Kentucky Research Foundation, priority 2020, published 2023).
# B1: human pancreatic α-amylase: enzyme component of VAL-0417, degrades glycogen (protein, UniProt P04746 16-511, looked up)
# Pancreatic alpha-amylase: QYSPNTQQGRTSIVHLFEWRWVDIALECERYLAPKGFGGVQVSPPNENVAIYNPFRPWWERYQPVSYKLCTRSGNEDEFRNMVTRCNNVGVRIYVDAVINHMCGNAVSAGTSSTCGSYFNPGSRDFPAVPYSGWDFNDGKCKTGSGDIENYNDATQVRDCRLTGLLDLALEKDYVRSKIAEYMNHLIDIGVAGFRLDASKHMWPGDIKAILDKLHNLNSNWFPAGSKPFIYQEVIDLGGEPIKSSDYFGNGRVTEFKYGAKLGTVIRKWNGEKMSYLKNWGEGWGFVPSDRALVFVDNHDNQRGHGAGGASILTFWDARLYKMAVGFMLAHPYGFTRVMSSYRWPRQFQNGNDVNDWVGPPNNNGVIKEVTINPDTTCGNDWVCEHRWRQIRNMVIFRNVVDGQPFTNWYDNGSNQVAFGRGNRGFIVFNNDDWSFSLTLQTGLPAGTYCDVISGDKINGNCTGIKIYVSDDGKAHFSISNSAEDPFIAIHAESKL
# Experiment: Activity of enzymes to degrade glycogen under neutral pH
# Format: biochemical
# Conditions: neutral pH of the cellular environment
molecule,measurement,value
B1,activity to degrade glycogen,best activity
